Data as given in publication PMC10901769, “An anti-CRISPR that represses its own transcription while blocking Cas9-target DNA binding”.

Legend:
AcrIIA15 NTD = molecular target: T1, AcrIIA15 NTD (UniProt PDB:8JFR_1 1-63); experiment: EMSA; Promoter EMSA: 20 mM Tris-HCl pH 7.5, 300 mM NaCl, on ice/4 C, 30 min; SaCas9 EMSA: 20 mM Tris pH 7.5, 200 mM NaCl, 10 mM EDTA, RT; SPR: 10 mM Na2HPO4, 2 mM KH2PO4, 0.3 M NaCl; SEC: 20 mM Tris pH 7.5, 300 mM NaCl; details: protein: recombinant; tags: C-His6 or His6-Sumo (removed); chain copies: 2; blunt
T1 sequence: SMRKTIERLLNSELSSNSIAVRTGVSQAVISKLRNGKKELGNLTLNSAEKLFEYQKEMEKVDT

AcrIIA15 full-length [1] = molecular target: T2, AcrIIA15 full-length (UniProt PDB:8JG9_3 1-171); experiment: as above; details: protein: recombinant; tags: C-terminal His6, or His6-Sumo removed by Ulp1; chain copies: 2; blunt
T2 sequence: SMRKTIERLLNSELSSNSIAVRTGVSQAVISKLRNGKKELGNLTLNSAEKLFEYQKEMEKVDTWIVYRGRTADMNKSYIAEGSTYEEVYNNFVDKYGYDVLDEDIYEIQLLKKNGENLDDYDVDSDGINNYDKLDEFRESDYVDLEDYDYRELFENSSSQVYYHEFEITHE

AcrIIA15 CTD = molecular target: T3, AcrIIA15 CTD (UniProt PDB:8JFT_3 1-114); experiment: as above; details: protein: recombinant; tags: C-His6 or His6-Sumo (removed); blunt
T3 sequence: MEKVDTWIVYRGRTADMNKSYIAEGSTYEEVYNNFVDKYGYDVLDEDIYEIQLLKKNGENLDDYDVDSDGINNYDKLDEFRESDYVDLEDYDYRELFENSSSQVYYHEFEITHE

SaCas9;AcrIIA15 CTD = molecular target: T4, SaCas9;AcrIIA15 CTD (Staphylococcus aureus;, UniProt J7RUA5;PDB:8JFT_3 1-1053;1-114, |); experiment: cryo-EM; Promoter EMSA: 20 mM Tris-HCl pH 7.5, 300 mM NaCl, on ice/4 C, 30 min; SaCas9 EMSA: 20 mM Tris pH 7.5, 200 mM NaCl, 10 mM EDTA, RT; SPR: 10 mM Na2HPO4, 2 mM KH2PO4, 0.3 M NaCl; SEC: 20 mM Tris pH 7.5, 300 mM NaCl; details: protein: recombinant;recombinant; tags: His6-Sumo removed by Ulp1;C-His6 or His6-Sumo (removed); copies: 1;1; hairpin
T4 sequence 1: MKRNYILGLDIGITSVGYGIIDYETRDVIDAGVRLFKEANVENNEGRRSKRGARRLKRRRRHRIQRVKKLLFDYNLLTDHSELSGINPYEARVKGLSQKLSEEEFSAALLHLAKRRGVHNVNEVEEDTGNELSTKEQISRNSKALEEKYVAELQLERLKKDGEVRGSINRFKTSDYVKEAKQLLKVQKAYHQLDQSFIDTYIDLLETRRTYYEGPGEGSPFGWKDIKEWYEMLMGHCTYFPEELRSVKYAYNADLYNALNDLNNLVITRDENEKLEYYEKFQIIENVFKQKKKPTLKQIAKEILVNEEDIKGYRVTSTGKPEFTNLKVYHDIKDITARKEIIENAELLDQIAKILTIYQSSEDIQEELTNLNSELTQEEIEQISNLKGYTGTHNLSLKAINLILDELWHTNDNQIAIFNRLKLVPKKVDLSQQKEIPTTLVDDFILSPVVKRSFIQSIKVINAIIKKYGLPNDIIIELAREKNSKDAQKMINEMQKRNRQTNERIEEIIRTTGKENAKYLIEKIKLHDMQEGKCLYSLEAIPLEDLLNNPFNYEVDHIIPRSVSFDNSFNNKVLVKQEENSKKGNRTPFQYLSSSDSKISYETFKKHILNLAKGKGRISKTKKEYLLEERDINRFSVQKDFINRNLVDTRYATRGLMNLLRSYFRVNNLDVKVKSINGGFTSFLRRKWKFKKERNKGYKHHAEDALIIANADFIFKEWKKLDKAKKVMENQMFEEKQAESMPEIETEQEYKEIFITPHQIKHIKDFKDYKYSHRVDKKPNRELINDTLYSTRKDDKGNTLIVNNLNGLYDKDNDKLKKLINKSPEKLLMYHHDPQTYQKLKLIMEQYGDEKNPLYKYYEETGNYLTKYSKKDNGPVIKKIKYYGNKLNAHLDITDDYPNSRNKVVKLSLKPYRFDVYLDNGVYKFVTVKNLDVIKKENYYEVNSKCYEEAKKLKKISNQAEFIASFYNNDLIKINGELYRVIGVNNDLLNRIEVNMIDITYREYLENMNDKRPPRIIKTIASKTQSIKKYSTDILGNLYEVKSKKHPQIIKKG
T4 sequence 2: T3 sequence

[2] = molecular target: T5, SaCas9;AcrIIA15 full-length (Staphylococcus aureus;, UniProt J7RUA5;PDB:8JG9_3 1-1053;1-171, |); experiment: cryo-EM; with IR1 DNA; Promoter EMSA: 20 mM Tris-HCl pH 7.5, 300 mM NaCl, on ice/4 C, 30 min; SaCas9 EMSA: 20 mM Tris pH 7.5, 200 mM NaCl, 10 mM EDTA, RT; SPR: 10 mM Na2HPO4, 2 mM KH2PO4, 0.3 M NaCl; SEC: 20 mM Tris pH 7.5, 300 mM NaCl; details: protein: recombinant;recombinant; tags: His6-Sumo removed by Ulp1;C-terminal His6, or His6-Sumo removed by Ulp1; chain copies: 2;2; hairpin
T5 sequence 1: T4 sequence 1
T5 sequence 2: T2 sequence

AcrIIA15 full-length [3] = molecular target: T2, AcrIIA15 full-length; experiment: SEC; no stable binding; Promoter EMSA: 20 mM Tris-HCl pH 7.5, 300 mM NaCl, on ice/4 C, 30 min; SaCas9 EMSA: 20 mM Tris pH 7.5, 200 mM NaCl, 10 mM EDTA, RT; SPR: 10 mM Na2HPO4, 2 mM KH2PO4, 0.3 M NaCl; SEC: 20 mM Tris pH 7.5, 300 mM NaCl; details: protein: recombinant; tags: C-terminal His6, or His6-Sumo removed by Ulp1; chain copies: 2; blunt

B1: IR1-IR2 (dsDNA)
DNA 1: ATAATTATGACAAATGTCATAGAAAAGCGTTGACTTATGACGAACGTCATAATATA
DNA 2: TATATTATGACGTTCGTCATAAGTCAACGCTTTTCTATGACATTTGTCATAATTAT
- binding result (AcrIIA15 NTD): binds
- binding result (AcrIIA15 full-length [1]): binds
- binding result (AcrIIA15 CTD): no binding

B2: SaCas9 sgRNA (structured_RNA)
RNA: GGUCUGCUAUUUCUAUUUACGUUUUAGUACUCUGGAAACAGAAUCUACUAAAACAAGGCAAAAUGCCGUGUUUAUCUCGUCAACUUGUUGGCGAGAUC
- binding result (SaCas9;AcrIIA15 CTD): binds
- binding result [2]: binds

B3: IR1' (dsDNA)
DNA 1: TTATGACAAATGTCATAG
DNA 2: CTATGACATTTGTCATAA
- binding result (AcrIIA15 full-length [3]): no binding
